# B1: Pistol ribozyme (parent)
# chain: GGGUCGUUGUUCCAUAAUCGCGUGGAUAUGGCACGCAAGUUUCUACCGGGCACCGUAAAUGUCCGACUGGAGCCGUUCGGGCGGCUAUAAACAGACCUCAGGCCCGAAGCGUGGCGGCACCUGCCGCCGGUGGUAAAAAAGAUCGGAAGAGCACACGUCU
# Variants of: B1
# Assay: aptazyme ON/OFF ratio, guanine; higher = stronger switching; co-transcriptional cleavage with and without guanine
row,Variant,aptazyme ON/OFF ratio
1,U8G G9A U10G C12G,1.34
2,U7G U8C G9A U10G U11G C13A,1.31
3,U8A G9U U10G U11C C12U,1.01
4,U7C U8C G9C U11A C12G C13G,1.07
5,U7G U8C G9U U10G U11G C13U,1.36
6,U8A G9U U10G C12G,1.13
7,U7C U10C U11G C12G,1.3
8,U8C G9C C13U,1.08
9,U7C U8G U10C U11G C12U C13G,1.17
10,U8G G9C U10A U11A C12A C13A,1.12
11,U10G U11A C12A C13A,1.11
12,U7G U8G U10A U11C C13A,1.27
13,U7G U8A G9C U10A U11C C12U C13U,1.04
14,U7A U8G G9C U11C C12U C13U,1.22
15,U7A G9U C12U,1.34
16,U7G G9U U11G C12G,1.74
17,U7C U8C G9C U10A U11A C12G C13A,1.11
18,U7A U8G G9U U10C U11G C12A,1.5
19,U7G U8G U10C C12A C13G,1.27
20,U7A U8G G9U U10G U11C C12U C13A,1.1
21,G9U U10C U11A C12A C13G,1.24

row,Variant,aptazyme ON/OFF ratio
1,U7A U10G,1.56
2,U7G U8C G9C U10G U11G C12G C13G,1.08
3,U10A U11G,2.01
4,U7G U10G U11G C12U,1.24
5,U7A U10G U11C C12A C13G,1.12
6,U7C U8G G9A C12U C13G,1.35
7,U8C U11C C12A C13U,1.73
8,G9C U10G C13G,1.1
9,U8G C12U C13A,1.23
10,U7A U8A G9A U10G C12U C13A,1.05
11,U8A U10C U11G C13A,1.21
12,U7C U10C U11A C12A,1.53
13,U7C U8G G9C U10G U11G C12A C13A,1.15
14,U7C U8G G9C U10C U11A C12A,1.08
15,G9A U10A U11G C12G,1.16
16,U7C U8G G9U U11A C12U C13U,1.45
17,U8C G9A U10G U11A C12U C13G,1.16
18,U7C U8C U11G C12A,1.35
19,U7A U8A G9U U10G U11A C12G,1.32
20,U7C U8C G9U U11A C13U,1.15
21,U7A U8A G9A U10G,1.31

row,Variant,aptazyme ON/OFF ratio
1,U8G G9C U11G C13U,1.06
2,U7G U11C C13A,1.03
3,U7C U8A U10G U11G C12A,1.2
4,U8A G9A U10A U11A C13U,1.09
5,U7G U8A U10C U11C C12U C13G,1.25
6,U7A U8A G9A U10C U11C C13G,0.997
7,U7A U8A G9C U10A C13G,1.07
8,U7A G9A U10G U11C C12A,1.21
9,U7C G9A U10G U11G C12U,1.28
10,U7A U8A G9A U10A U11C C12A C13U,1.24
11,U10C U11C C13U,1.03
12,U7C U8C G9A U10A U11C C12A C13U,1.31
13,U7G U8C G9U U10C C12U C13U,1.26
14,U7A U8C U11G,1.37
15,U8A C12A C13U,1.19
16,U8G G9U U10A U11C C12A C13A,1.1
17,U7G U8C U10A U11C C13U,1.04
18,U7A U8A G9C U10A U11G C12G C13U,1.14
19,U7G U8G U10G U11C C12G C13U,1.4
20,U7C U8C G9A U10A U11A C12G C13G,1.12
21,U8C U10A U11C C12A C13U,1.08

row,Variant,aptazyme ON/OFF ratio
1,U7G G9A U10C U11C C12G,1.17
2,U7C U10A C12A C13G,1.08
3,U7C U8G G9U U11A C13G,1.09
4,U7C U8G G9U U11G C12A,1.27
5,U7C U8G G9A U10A U11A C12U,1.18
6,U8C G9U U10G U11G C13A,1.14
7,U7A U8A G9A U11A C13U,1.19
8,U7A C12G C13U,1.27
9,G9A U10C U11A C12A C13U,1.63
10,U7C U8G G9U U11C C12G,1.32
11,U7C U8A G9A C12A C13A,1.21
12,U7G G9C U10A U11C C12A,1.76
13,U8C G9A U10G U11G C12G C13U,1.11
14,U11G C12G C13U,1.32
15,U8A G9U U10C U11G C12G,1.09
16,U7A U8A G9C U10G U11A C13A,1.04
17,U7G U8G G9A U10A U11A C12U,1.35
18,U7C U8G G9C U10G U11A C12U C13G,1.27
19,U7A U11A,1.24
20,U7A G9U U11A C12A,1.28
21,U7A U8G G9C C12A C13A,1.46
